This note sets out measurements from patent US6204034A, “Leukotriene C4 synthase” (Merck Frosst Canada & Co., priority 1994, dated 2001).

The target in data set [1] is T1, LTC4 synthase (Homo sapiens, UniProt Q16873).
T1 sequence (Q16873 1-150): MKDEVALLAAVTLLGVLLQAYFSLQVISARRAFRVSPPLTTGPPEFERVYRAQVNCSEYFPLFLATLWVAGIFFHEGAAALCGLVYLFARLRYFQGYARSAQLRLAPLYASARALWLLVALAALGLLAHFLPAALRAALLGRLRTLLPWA
Conditions: LTC2-X-biotin:streptavidin-agarose column.

The target in data set [2] is T2, THP-1 microsomal membrane protein (Homo sapiens, UniProt Q16873).
T2 construct: 0.3 mg of THP-1 microsomal membrane protein; endogenous in cells; host or cells: THP-1 cells (microsomal membranes)
T2 sequence (Q16873 1-150): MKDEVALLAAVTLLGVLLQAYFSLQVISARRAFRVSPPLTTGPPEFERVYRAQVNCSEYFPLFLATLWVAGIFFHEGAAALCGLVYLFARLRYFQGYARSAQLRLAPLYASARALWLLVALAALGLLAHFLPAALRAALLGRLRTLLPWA
Briefly: Photoaffinity labelling of THP-1 cell membranes. The class given is binding. Conditions: 20 pM ligand, 0.3 mg THP-1 microsomal membrane protein, SDS-gel autoradiography. The method, then:
The mixtures were incubated in 1.5 mL microcentrifuge tubes for 30 min. at 25° C. then transferred to 35 mm diameter cluster plate wells for photolysis. The samples in cluster plates were cooled for 5 min. at 4° C. then illuminated from above with a 40W ultraviolet light source (Phillips, λmax =350 nm) at a distance of 5 cm for 2 min. at 4° C. The samples were then transferred back into 1.5 mL microcentrifuge tubes and the membranes were re-isolated by centrifugation for 15 min. at 200,000×g. The resulting pellets were dissociated in SDS-containing sample buffer, denatured at 95° C. for 5 min. and then the proteins were resolved by SDS-gel electrophoresis. Radioactive bands in the dried gels were visualized by autoradiography and quantified by laser densitometry.

In data set [3] the target is T1, LTC4 synthase. In words: Measurement of LTC4 synthase activity (LTC4 formation from LTA4 and reduced glutathione, reverse-phase HPLC). In kind it is biochemical. On the set-up: endogenous in cells; host or cells: THP-1 cells; some values from human lung tissue. Here is the method: The mixtures were allowed to stand for a minimum of 30 min. at 4° C. (or overnight). […] The bulk of the resulting supernatant (250 μl) was then transferred to sample vials for reverse-phase HPLC of which 200 μl was injected for analysis.
Analysis of LTC4 Formation by Reverse-Phase HPLC--The reaction products formed in the incubation mixtures described above were resolved by isocratic reverse-phase HPLC on a Waters Associates Novapak C18 column (3.9×150 mm, 4μ particle size). The mobile phase was acetonitrile:methanol:water:acetic acid at 54:14:28:1 adjusted to pH 5.6 with 10 NaOH and was pumped at a flow rate of 1.0 mL/min. LTC4 was quantified by on-line measurement of the optical density at 280 nm. The LTC4 peak was identified by its retention time compared to a synthetic standard (normally 10 min.).

Data set [4] in a line: Longevity of LTA4 free acid in mock incubation mixtures under aqueous conditions. The class given is physicochemical. Conditions: mock incubation mixtures with 0.05% (w/v) bovine serum albumin and potassium phosphate buffer. From the text:
Hydrolysis of LTA4 Methyl Ester--The methyl ester of leukotriene A4 was hydrolyzed to the free acid essentially as described by Carrier, D. J. et al., Prostaglandins Leukot. Essent. Fatty Acids, 34, 27-30 (1988). The hydrolysis was monitored by determination of LTA4 by reverse-phase HPLC at pH 10 (Wynalda, M. A. et al., Anal. Chem., 54, 1079-1082 (1982)) except that LTA4 and LTA4 -methyl ester were eluted by a gradient of 20 to 70% (v/v) acetonitrile in borate buffer instead of isocratically as described in Wynalda et al. LTA4 -methyl ester (1.0 mg in hexane) was dried under a stream of nitrogen and then dissolved in 4 mL of 0.25 M NaOH:acetone (2:8 v/v). Following incubation for 60 min. at 25° C., the hydrolysis mixture was portioned into aliquots that were stored at -80° C. (up to 1 month). Following this procedure, the recovery of LTA4 free acid was >95% as confirmed by analysis of the hydrolysis products by reverse-phase HPLC under alkaline conditions (Wynalda et al.).

Substrate in data set [5]: CCCCCC=CCC=CC=CC=CC1OC1CCCC(=O)O
In words: purified protein, by the assay type. In kind it is biochemical, human. Conditions: 25.0 °C.

Substrate in data set [6]: N[C@@H](CCC(=O)N[C@@H](CS)C(=O)NCC(=O)O)C(=O)O
Briefly: purified protein, by the assay type. Conditions: 25.0 °C.

Where [7] appears, read: other: THP-1 cells LTC4 synthase.
[8] abbreviates: other: human monocytes LTC4 synthase.
[9] abbreviates: purification fractions from 2×10^11 THP-1 cells.

`N[C@@H](CCC(=O)N[C@@H](CS)C(=O)NCC(=O)O)C(=O)O` [GSH, Reduced glutathione, reference compound]: in data set [1], the “effect on LTC4 synthase binding to the affinity resin” value is recorded as “inhibited LTC4 synthase binding to the affinity resin”.
As to `CCCCC/C=C\C\C=C/C=C/C=C/[C@@H](SC[C@H](NC(=O)CC[C@H](NC(=O)CCCCCNC(=O)c1cc([125I])c(N=[N+]=[N-])cc1O)C(=O)O)C(=O)NCC(=O)O)[C@@H](O)CCCC(=O)O` [Azido^125 I LTC4], the “photoaffinity radiolabelling of membrane polypeptide” value in data set [2] is given as “specifically radiolabelled a single membrane polypeptide”.
As to `[Cl-].[Na+]` [NaCl], the “effect on LTC4 synthase binding to the affinity resin” value in data set [1] is reported as “inhibited LTC4 synthase binding to the affinity resin”.
`CCCCCC=CCC=CC=CC=CC1OC1CCCC(=O)O` (stereo not shown) [LTA4, leukotriene A4, reference compound]: in data set [3], the Preferred substrate result is listed as “LTA4 free acid >> LTA4 methyl ester”. Also, the half-life result in data set [4] is on record as “approximately 30 min”.
In the case of `CCCCCC=CCC=CC=CC=CC1OC1CCCC(=O)OC` (stereo not shown) [LTA4 methyl ester, methyl ester of leukotriene A4, reference compound], the Preferred substrate result in data set [3] is listed as “LTA4 free acid >> LTA4 methyl ester”.

B1: LTC4 synthase (Homo sapiens) (protein)
chain: MKDEVALLAAVTLLGVLLQAYFSLQVISARRAFRVSPPLTTGPPEFERVYRAQVNCSEYFPLFLATLWVAGIFFHEGAAALCGLVYLFARLRYFQGYARSAQLRLAPLYASARALWLLVALAALGLLAHFLPAALRAALLGRLRTLLPWA
notes: endogenous in cells; host or cells: THP-1 cells; some values from human lung tissue
On to B1, for which the Km – broadly, the concentration of substrate that gives half-maximal velocity – in data set [5] (setting [7]) was 9.89 µM; in data set [5] (setting [8]), 5.6 µM; in data set [6] (setting [7]) it was 1670 µM; in data set [6] (setting [8]), 1200 µM. Besides, in data set [3] (setting [9]), the Activity was 1.378 nmol · min^-1 .multid. The “Spec. Activity” value in data set [3] (setting [9]) turned out to be 4135 nmol · min^-1 .multid. Further, the “Rel. Spec. Activity” value in data set [3] (relative to specific activity in harvested cells set at 1.00) is given as 27,384.
